The record followed here is patent US20160068834A1 (published 2016).

Where two headings read alike, the source gives them in different places. Bridges are numbered along the chain shown (N, C = ends). Where no end group is shown, it is not given here. [ ]: non-standard residue; d: D form. The star is where a group is joined. FITC = O=C1OC2(c3ccc(O)cc3Oc3cc(O)ccc32)c2ccc(NC(=S)*)cc21; S5 = C=CCCC[C@](C)(N)C(=O)O; Nle = CCCC[C@H](N)C(=O)O

Assay [1] concerns the target T1, C-terminal His-tagged EED (His-EED) (UniProt O75530 1-441). Kind of assay: fluorescence polarization. On the technique in general: Polarisation of emitted light reports the rotation of a fluorescent probe.
Another assay concerns the target purified EED (Example 6) (UniProt O75530 1-441). Kind of assay: competitive fluorescence polarization; competition against FITC-EZH2(42-68).
For assay [2], the target named is T1, C-terminal His-tagged EED (His-EED). Kind of assay: fluorescence polarization. The source holds these as a separate data set.

T1 sequence (O75530 whole entry): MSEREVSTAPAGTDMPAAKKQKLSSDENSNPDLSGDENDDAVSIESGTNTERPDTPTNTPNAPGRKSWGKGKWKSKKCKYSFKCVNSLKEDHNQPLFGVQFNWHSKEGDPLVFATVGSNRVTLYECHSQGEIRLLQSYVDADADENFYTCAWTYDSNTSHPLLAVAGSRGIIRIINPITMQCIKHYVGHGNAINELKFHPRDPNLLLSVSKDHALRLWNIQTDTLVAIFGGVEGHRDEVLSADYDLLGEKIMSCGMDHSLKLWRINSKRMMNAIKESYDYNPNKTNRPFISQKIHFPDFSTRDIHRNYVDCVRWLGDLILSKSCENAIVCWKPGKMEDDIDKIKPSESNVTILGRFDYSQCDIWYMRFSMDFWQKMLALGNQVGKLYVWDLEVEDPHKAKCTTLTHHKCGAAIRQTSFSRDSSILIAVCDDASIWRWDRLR
Sequence of purified EED (Example 6) (O75530 whole entry): as above

Turning to {FITC}-FSSNR[S5]KIL[S5]RTQILNQEWKQRRIQPV (staple 6-10) [FITC-SAH-EZH2A(42-68)E54Q], the affinity in assay [1], expressed as Kd, was 320 nM.

Ac-FSSNR[S5]KIL[S5]RTQILNQEWKQRRIQPV (staple 6-10) [acetyl-SAH-EZH2] displayed a Kd with purified EED (Example 6) of 1130 nM.

The molecule {FITC}-S[Nle]FSSNRQKILERT[S5]ILN[S5]EWKQRRIQPV (staple 15-19) [FITC-SAH-EZH2B(40-68)] had a Kd in assay [2] of 264 nM.

In turn, {FITC}-S[Nle]FSSNR[S5]KIL[S5]RTEILNQEWKQRRIQPV (staple 8-12) [FITC-SAH-EZH2A(40-68)] showed a Kd in assay [2] of 333 nM.

Molecule Ac-FSSNR[S5]KIL[S5]RT[S5]ILN[S5]EWKQRRIQPV (staple 6-10, 13-17) [acetyl-SAH-EZH2(42-68)AC] had a Kd with purified EED (Example 6) of 650 nM.

As for {FITC}-FSSNR[S5]KIL[S5]RTQILNQQWKQRRIQPV (staple 6-10) [FITC-SAH-EZH2A(42-68)E54Q/E59Q], in assay [1], the Kd was > 10000 nM.

The molecule {FITC}-FSSNRQKILERT[S5]ILN[S5]EWKQRRIQPV (staple 13-17) [FITC-SAH-EZH2B(42-68)] had a Kd in assay [2] of 528 nM.

{FITC}-FSSNR[S5]KIL[S5]RTEILNQEWKQRRIQPV (staple 6-10) [FITC-SAH-EZH2A(42-68)] yielded a Kd in assay [2] of 468 nM.

The Kd is a measure of binding affinity in units of concentration. A higher Kd goes with a looser complex.
